Blank lines part the entries; values can stand above or below the binder they belong to.
Tests used:
recombinant human IL-23 [1] = target: T1, recombinant human IL-23 (human, UniProt Q9NPF7 20-189; P29460 23-328); experiment: IL-23/IL-23R inhibition ELISA (optimised protocol, OD450): plate coated with human IL23R Fc chimera, antibody pre-incubated with constant human IL-23, bound IL-23 detected with biotinylated anti-human IL-12; purified antibody
T1 construct: also called hIL-23
T1 sequence 1: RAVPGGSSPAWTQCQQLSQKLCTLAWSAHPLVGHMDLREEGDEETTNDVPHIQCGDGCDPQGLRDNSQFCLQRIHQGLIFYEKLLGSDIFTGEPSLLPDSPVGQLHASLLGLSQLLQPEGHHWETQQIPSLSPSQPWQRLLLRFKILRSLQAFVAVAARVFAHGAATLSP
T1 sequence 2: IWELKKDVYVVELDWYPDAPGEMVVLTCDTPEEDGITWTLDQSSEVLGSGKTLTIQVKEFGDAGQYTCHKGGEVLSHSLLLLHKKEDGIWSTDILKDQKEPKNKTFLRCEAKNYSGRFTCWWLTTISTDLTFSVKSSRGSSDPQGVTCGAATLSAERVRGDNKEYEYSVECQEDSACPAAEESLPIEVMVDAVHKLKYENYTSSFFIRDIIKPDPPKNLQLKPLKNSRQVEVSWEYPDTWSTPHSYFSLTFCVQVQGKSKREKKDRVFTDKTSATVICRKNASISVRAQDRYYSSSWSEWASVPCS
Method: Optimised protocol: Plates were coated with human IL23R Fc chimera at […] (phosphate buffered saline). 50 μl/well of this mixture was incubated overnight at 4° C. The plates were then washed three times with Phosphate Buffered Saline with 0.05% Tween 20 (PBST). Plates were blocked with 4% skim milk powder (Fluka BioChemika #70166) PBST 100 μl/well for a minimum of 1 hour at room temperature. The plates were then washed three times with Phosphate Buffered Saline+0.05% Tween 20 (PBST). Various concentrations of antibody were incubated in a separate plate with a constant concentration of IL-23 for 1 hour at room temperature. 50 ul of each mixture were transferred to the assay plate and incubated at RT for 1 hr. They were then washed three times with Phosphate Buffered Saline+0.05% Tween 20 (PBST). Bound IL23 was detected by anti human 1L12 Biotin labelled Ab (R&D systems BAF219) diluted to 100 ng/ml in 4% skim milk powder (Fluka BioChemika #70166) PBST. 50 μl/well of the biotinylated antibody was added and incubated at RT for 1 hour. The plates were then washed three times with Phosphate Buffered Saline+0.05% Tween 20 (PBST). SA HRP (GE healthcare RPN4401) was diluted 1/4000 in 4% skim m ilk powder (Fluka BioChemika #70166) PBS, 50 μl/well was added to the plates. The plates were then washed three times with Phosphate Buffered Saline+0.05% Tween 20 (PBST). 50 ul/well of TMB was added to the plates and incubated at RT for 15 min. 25 μl/well of 3 MH₂SO₄ was added to the wells already containing TMB. The plate was read at OD450 nm using the SOftmaxPRO versamax plate reader.

Endogenous human IL-23 [2] = target: T2, Endogenous human IL-23 (human, UniProt Q9NPF7 20-189; P29460 23-328); experiment: receptor inhibition ELISA in 25% human pooled AB serum: plate coated with recombinant human IL-23 receptor, endogenous human IL-23 at 5 ng/ml pre-incubated with titrated purified antibody, bound IL-23 detected with biotinylated anti-human IL-12
T2 construct: also called endogenous human IL-23 from stimulated dendritic cells
T2 sequence 1: T1 sequence 1
T2 sequence 2: T1 sequence 2
Method: (§1) Recombinant human IL-23 Receptor (R&D systems 1400-IR-050) was coated onto 96 well plates at a concentration of 1 μg/ml. Endogenous human IL-23 at 5 ng/ml final, was pre incubated with a titration of purified mAbs before being added to the pre-coated plates. Detection was performed with biotinylated anti-human IL12 (R&D systems BAF-219), followed by Streptavidin-HRP (GE Healthcare RPN 4401). This neutralisation ELISA used 25% human pooled AB type serum.

Endogenous human IL-23 [3] = target: T2, Endogenous human IL-23; experiment: receptor inhibition ELISA: plate coated with recombinant human IL-23 receptor, endogenous human IL-23 at 3.5 ng/ml pre-incubated with titrated purified antibody, bound IL-23 detected with biotinylated anti-human IL-12; 1% BSA
Method: as §1, with “at 3.5” for “at 5”, “incubated for 1 hour” for “incubated”, “purified antibody material” for “purified mAbs”, “anti-human 1L12” for “anti-human IL12”, “systems BAF-219)” for “systems BAF-219),”, “used 1% BSA.” for “used 25% human pooled AB type serum.”

recombinant human IL-23 [4] = target: T1, recombinant human IL-23; experiment: SPR (Biacore 3000), CHO supernatant antibody captured on Protein A or anti-human IgG, IL-23 analyte at 256, 64, 16, 4 nM
recombinant human IL-23 [5] = target: T1, recombinant human IL-23; experiment: SPR (Biacore T100), CHO supernatant antibody captured on Protein A or anti-human IgG, IL-23 analyte at 256, 64, 16, 4, 1 nM
recombinant human IL-23 [6] = target: T1, recombinant human IL-23; experiment: SPR (Biacore T100), purified antibody captured on anti-human IgG, IL-23 analyte, 1:1 model
Method: Biacore analysis was carried out using a capture surface on a CM5 chip. Anti-human IgG (BR-1008-39) was used as the capturing agent. Anti-human IgG was coupled to a CM5 biosensor chip by primary amine coupling. Humanized antibody was captured on this immobilised surface and defined concentrations of IL-23 were passed over this captured surface. An injection of buffer over the captured antibody surface was used for double-referencing. […] T100 Biacore machine was used to generate the data; all runs were carried out at 25° C. using HBS EP. Data was analysed using the software inherent to the machine and fitted to the 1:1 model of binding. Tables 7 and 8 detail the IL-23 binding analysis carried out on the 8C92H6.HC1LC1 chimera and selected humanized variants in two separate experiments. Data presented in Tables 7 and 8 are from purified antibody samples. The data shown for the humanized variants is representative of a number of runs. The chimeric mAb (8C9H6.HC1LC1) was only run once in each experiment, so data shown for this mAb is from that one run.

IC50 (read off the curve) (recombinant human IL-23 [1]): ~2 nM | IC50 (read off the curve) (Endogenous human IL-23 [2]): ~20 ng/mL | IC50 (read off the curve) (Endogenous human IL-23 [3]): ~100 ng/mL
B1: chimeric 8C92H6 HC1LC1 (antibody, V domains shown)
VH: QVQLQQSGAELARPGTSVKLSCKASGYTFTSYGITWVKQRTGQGLEWIGENYPRSGNTYYNEKFKGKATLTADKSSSTAYMELRSLTSEDSAVYFCARCEFISTVVAPYYYALDYWGQGTSLVTVS
VL: DIVLTQSPASLAVSLGQKATISCKASKKVTIFGSISALHWYQQKPGQPPKLIYNGAKLESGVSARFSDSGSQNRSPFGNQLSFTLTIDPVEADDAATYYCLQNKEVPYTFGGGTKLEIKR
notes: Murine variable regions with human constant regions; also called 8C92H6.HC1LC1 Chimera; 8C9 chimera

IC50 (read off the curve) (recombinant human IL-23 [1]): ~0.5 nM | Kd (recombinant human IL-23 [4]): 1.1 nM | koff (recombinant human IL-23 [4]): 0.00033 s⁻¹ | kon (recombinant human IL-23 [4]): 300000 M⁻¹ s⁻¹ | IC50 (read off the curve) (Endogenous human IL-23 [2]): ~10 ng/mL | Kd (recombinant human IL-23 [5]): 0.92 nM | koff (recombinant human IL-23 [5]): 0.00028 s⁻¹ | kon (recombinant human IL-23 [5]): 300000 M⁻¹ s⁻¹ | Kd (recombinant human IL-23 [6]): 0.194 nM | koff (recombinant human IL-23 [6]): 0.000237 s⁻¹ | kon (recombinant human IL-23 [6]): 1.22e+06 M⁻¹ s⁻¹ | IC50 (read off the curve) (Endogenous human IL-23 [3]): ~5 ng/mL
B2: A3M0 (antibody, human IgG1, kappa, V domains shown)
VH: QVQLVQSGAEVKKPGSSVKVSCKASGYTFTSYGITWVRQAPGQGLEWMGENYPRSGNTYYNEKFKGRVTITADKSTSTAYMELSSLRSEDTAVYYCARSEFISTVVAPYYYALDYWGQGTLVTVSS
VL: DIVMTQSPDSLAVSLGERATINCKASKKVTIFGSISALHWYQQKPGQPPKLIYNGAKLESGVPDRFSGSGSGTDFTLTISSLQAEDVAVYYCLQNKEVPYTFGGGTKVEIKR
notes: Full length chains; also called humanized mAb A3M0

From patent US20090123479A1 (published 2009)
